Data as given in the supplement of paper PMC9876800.

System: peptide library, one residue held at a place counted from the S/T acceptor
Assay: relative phosphorylation of the sub-library (ratio to the mean residue at this position); higher = residue favoured
Details: human
How it was run: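 Each biotinylated degenerate peptide sub-library fixed one residue at one position around a central Ser/Thr and was incubated with a purified recombinant kinase, a human or orthologue construct, in 384-well plates. The 90 min reactions, under kinase-specific conditions, contained 50 μM peptide and 50 μM ATP spiked with γ-32P-ATP. Phosphorylation was read by phosphorimaging spots on streptavidin membranes and quantifying them by densitometry. Relative sub-library phosphorylation expresses each value as a ratio to the mean residue at that position.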

RIPK3, construct: aa1-313, sequence (Q9Y572 1-313, looked up): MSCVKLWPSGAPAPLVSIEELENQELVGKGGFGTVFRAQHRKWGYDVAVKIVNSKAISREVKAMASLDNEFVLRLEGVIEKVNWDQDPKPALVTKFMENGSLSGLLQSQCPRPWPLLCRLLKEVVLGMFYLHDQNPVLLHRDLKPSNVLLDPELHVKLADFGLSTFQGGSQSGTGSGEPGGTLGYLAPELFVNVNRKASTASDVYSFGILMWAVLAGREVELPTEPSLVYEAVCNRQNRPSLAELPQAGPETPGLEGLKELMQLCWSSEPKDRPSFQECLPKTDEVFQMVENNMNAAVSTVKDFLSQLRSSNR
PRKCQ, construct: Full length, sequence (Q04759 whole entry, looked up): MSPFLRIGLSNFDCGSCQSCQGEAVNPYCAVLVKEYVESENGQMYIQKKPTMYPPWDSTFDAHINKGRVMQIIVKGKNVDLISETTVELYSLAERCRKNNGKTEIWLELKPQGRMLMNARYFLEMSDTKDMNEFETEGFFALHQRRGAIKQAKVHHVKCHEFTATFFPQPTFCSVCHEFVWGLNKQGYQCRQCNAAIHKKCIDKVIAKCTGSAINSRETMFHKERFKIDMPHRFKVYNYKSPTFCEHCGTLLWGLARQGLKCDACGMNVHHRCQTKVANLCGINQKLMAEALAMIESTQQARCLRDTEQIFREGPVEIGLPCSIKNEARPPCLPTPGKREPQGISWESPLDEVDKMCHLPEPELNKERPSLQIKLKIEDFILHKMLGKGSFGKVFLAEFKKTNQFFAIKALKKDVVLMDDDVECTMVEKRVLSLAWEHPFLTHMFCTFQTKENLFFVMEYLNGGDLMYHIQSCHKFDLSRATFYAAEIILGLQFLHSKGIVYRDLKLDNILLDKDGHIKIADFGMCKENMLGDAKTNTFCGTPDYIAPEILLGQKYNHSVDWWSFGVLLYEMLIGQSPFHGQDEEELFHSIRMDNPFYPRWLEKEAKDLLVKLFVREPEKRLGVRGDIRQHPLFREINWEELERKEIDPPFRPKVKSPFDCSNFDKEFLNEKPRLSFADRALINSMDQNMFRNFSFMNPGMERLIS

PIM3, construct: Full length (from UniProt Q86V86)
relative phosphorylation
Details | at +1 | at +2 | at +3 | at +4 | at -1 | at -2 | at -3 | at -4 | at -5
A fixed | 1.07 | 0.944 | 0.735 | 0.954 | 0.952 | 0.672 | 0.676 | 0.984 | 1.16
D fixed | 0.918 | 0.986 | 1.47 | 1.17 | 0.769 | 0.637 | 0.718 | 1.07 | 0.989
E fixed | 1.44 | 0.858 | 1.26 | 1.11 | 0.996 | 0.621 | 0.674 | 1.14 | 0.697
F fixed | 0.469 | 0.684 | 0.673 | 0.752 | 0.608 | 0.761 | 0.393 | 0.62 | 0.693
G fixed | 3.27 | 0.888 | 1.21 | 1.37 | 0.819 | 0.746 | 0.848 | 1.45 | 1.25
H fixed | 0.811 | 1.84 | 1.2 | 1.03 | 1.02 | 2.91 | 0.985 | 1.1 | 1.32
I fixed | 0.715 | 0.499 | 0.602 | 0.728 | 0.454 | 0.427 | 0.249 | 0.628 | 0.533
K fixed | 0.959 | 1.23 | 1.24 | 1.09 | 1.78 | 1.14 | 1.64 | 1.24 | 1.72
L fixed | 0.571 | 0.624 | 0.587 | 0.823 | 0.693 | 0.473 | 0.309 | 0.567 | 0.52
M fixed | 0.84 | 0.648 | 0.733 | 0.827 | 0.713 | 0.566 | 0.403 | 0.992 | 0.539
N fixed | 1.21 | 1.57 | 1.24 | 1.16 | 1.46 | 1.23 | 0.74 | 0.975 | 0.869
P fixed | 0.416 | 1.11 | 0.828 | 1.47 | 2.12 | 1.1 | 1.33 | 1.42 | 1
Q fixed | 1.33 | 1.16 | 1.19 | 1.14 | 1.46 | 1.07 | 0.856 | 1.08 | 0.926
R fixed | 0.955 | 1.44 | 1.53 | 0.79 | 1 | 2.1 | 5.83 | 1.57 | 2.42
V fixed | 0.828 | 0.7 | 0.69 | 0.859 | 0.697 | 0.456 | 0.372 | 0.657 | 0.714
W fixed | 0.553 | 0.981 | 0.931 | 0.934 | 0.529 | 0.905 | 0.575 | 0.775 | 0.961
Y fixed | 0.634 | 0.824 | 0.87 | 0.795 | 0.926 | 1.19 | 0.409 | 0.744 | 0.688
pThr fixed | 1.27 | 1.04 | 1.04 | 1.68 | 0.585 | 0.694 | 0.78 | 0.779 | 0.67
pTyr fixed | 0.783 | 0.886 | 1.11 | 1.02 | 1.21 | 0.975 | 0.904 | 1.03 | 1.03

PRKCB, construct: Full length (from UniProt P05771)
relative phosphorylation
Details | at +1 | at +2 | at +3 | at +4 | at -1 | at -2 | at -3 | at -4 | at -5
A fixed | 0.614 | 0.584 | 0.815 | 1.08 | 1.16 | 1.17 | 0.836 | 1.3 | 1.35
D fixed | 0.203 | 0.219 | 0.509 | 0.604 | 0.516 | 0.531 | 0.379 | 0.694 | 0.677
E fixed | 0.288 | 0.177 | 0.503 | 0.546 | 0.489 | 0.468 | 0.438 | 0.654 | 0.676
F fixed | 0.881 | 0.35 | 0.602 | 0.636 | 0.435 | 0.597 | 0.639 | 0.72 | 0.947
G fixed | 0.585 | 0.365 | 1.09 | 1.22 | 1.65 | 1.37 | 0.95 | 1.57 | 1.45
H fixed | 0.861 | 1.39 | 1.36 | 1.37 | 1.24 | 1.23 | 1.47 | 1.17 | 1.26
I fixed | 1.05 | 0.413 | 0.529 | 0.559 | 0.214 | 0.323 | 0.214 | 0.393 | 0.452
K fixed | 2.49 | 3.97 | 2.36 | 2.46 | 2.15 | 1.93 | 1.91 | 1.64 | 1.67
L fixed | 0.864 | 0.469 | 0.796 | 0.644 | 0.563 | 0.448 | 0.371 | 0.517 | 0.71
M fixed | 1.61 | 0.604 | 0.68 | 0.705 | 0.779 | 0.662 | 0.606 | 0.898 | 0.684
N fixed | 0.691 | 0.909 | 1.09 | 1.13 | 1.34 | 1.52 | 1.07 | 1.11 | 1.04
P fixed | 0.289 | 0.305 | 0.606 | 1.27 | 1.09 | 0.87 | 0.983 | 1.2 | 1.22
Q fixed | 1.45 | 0.727 | 1.1 | 1.2 | 1.04 | 1.47 | 1.08 | 1.24 | 1
R fixed | 2.18 | 4.58 | 2.22 | 1.46 | 2.25 | 2.3 | 4.21 | 1.78 | 1.44
V fixed | 1.11 | 0.443 | 0.627 | 0.683 | 0.496 | 0.462 | 0.354 | 0.504 | 0.695
W fixed | 0.813 | 0.627 | 1.03 | 0.83 | 0.556 | 0.933 | 0.68 | 0.933 | 1.19
Y fixed | 1.03 | 0.86 | 1.07 | 0.618 | 1.04 | 0.717 | 0.805 | 0.679 | 0.531
pThr fixed | 0.842 | 0.433 | 0.621 | 0.672 | 0.372 | 0.756 | 0.666 | 0.932 | 0.844
pTyr fixed | 0.519 | 0.272 | 0.651 | 0.434 | 0.732 | 0.712 | 0.693 | 0.806 | 0.983

PRKCQ, construct: Full length (from UniProt Q04759)
relative phosphorylation
Details | at +1 | at +2 | at +3 | at +4 | at -1 | at -2 | at -3 | at -4 | at -5
A fixed | 0.568 | 0.491 | 0.841 | 0.988 | 1.06 | 0.884 | 0.837 | 1.17 | 1.13
D fixed | 0.139 | 0.187 | 0.373 | 0.434 | 0.378 | 0.333 | 0.326 | 0.642 | 0.786
E fixed | 0.184 | 0.14 | 0.362 | 0.385 | 0.315 | 0.305 | 0.344 | 0.725 | 0.58
F fixed | 1.93 | 0.626 | 0.883 | 0.614 | 0.853 | 0.689 | 0.694 | 0.748 | 0.981
G fixed | 0.411 | 0.376 | 0.887 | 1.1 | 1.6 | 1.22 | 0.871 | 1.41 | 1.21
H fixed | 0.815 | 1.45 | 1.33 | 1.6 | 1.08 | 1.15 | 1.33 | 1.2 | 1.14
I fixed | 1.46 | 0.612 | 0.762 | 0.629 | 0.309 | 0.348 | 0.329 | 0.522 | 0.769
K fixed | 1.63 | 3.19 | 1.91 | 2.4 | 1.89 | 1.89 | 1.72 | 1.51 | 1.58
L fixed | 1.16 | 0.553 | 0.969 | 0.652 | 0.64 | 0.472 | 0.462 | 0.553 | 0.857
M fixed | 1.68 | 0.819 | 0.85 | 0.721 | 0.861 | 0.612 | 0.583 | 0.784 | 0.682
N fixed | 0.441 | 0.873 | 0.782 | 1.01 | 1.21 | 1.11 | 0.915 | 1.05 | 0.899
P fixed | 0.185 | 0.274 | 0.557 | 1.23 | 0.941 | 0.462 | 0.706 | 1.1 | 1.02
Q fixed | 0.952 | 0.748 | 0.929 | 0.944 | 1.09 | 1.22 | 0.982 | 0.996 | 0.862
R fixed | 1.83 | 3.66 | 2.14 | 1.88 | 2.29 | 4.01 | 4.83 | 1.95 | 1.88
V fixed | 1.35 | 0.598 | 0.776 | 0.688 | 0.539 | 0.47 | 0.435 | 0.669 | 0.775
W fixed | 1.07 | 0.859 | 1.31 | 0.884 | 0.728 | 1.01 | 0.814 | 1.22 | 1.12
Y fixed | 1.21 | 1.54 | 1.33 | 0.827 | 1.2 | 0.822 | 0.816 | 0.757 | 0.734
pThr fixed | 0.427 | 0.275 | 0.349 | 0.36 | 0.266 | 0.481 | 0.571 | 0.689 | 0.572
pTyr fixed | 0.351 | 0.255 | 0.379 | 0.263 | 0.543 | 0.497 | 0.566 | 0.574 | 0.645

RIPK3, construct: aa1-313 (from UniProt Q9Y572)
relative phosphorylation
Details | at +1 | at +2 | at +3 | at +4 | at -1 | at -2 | at -3 | at -4 | at -5
A fixed | 0.854 | 0.673 | 0.422 | 1.03 | 0.762 | 0.87 | 1.02 | 1.03 | 1.16
D fixed | 0.247 | 0.425 | 0.266 | 0.816 | 0.678 | 0.699 | 0.711 | 0.73 | 0.818
E fixed | 0.459 | 0.727 | 0.224 | 0.625 | 0.421 | 0.515 | 0.692 | 0.766 | 0.668
F fixed | 2.07 | 0.902 | 3 | 1.07 | 0.662 | 0.66 | 0.785 | 1.1 | 1.04
G fixed | 0.895 | 0.746 | 0.646 | 1.21 | 0.466 | 1.03 | 1.65 | 1.17 | 1.13
H fixed | 0.695 | 1.3 | 0.615 | 0.944 | 1.28 | 1.29 | 1.19 | 1.05 | 1.22
I fixed | 1.6 | 1.43 | 1.67 | 0.998 | 1.08 | 0.747 | 0.832 | 0.949 | 1.04
K fixed | 1.02 | 1.36 | 0.424 | 1.24 | 2.04 | 0.953 | 1.37 | 1.36 | 1.43
L fixed | 0.935 | 1.61 | 2.54 | 0.991 | 1.27 | 1.2 | 0.922 | 0.873 | 0.912
M fixed | 1.62 | 1.05 | 1.58 | 0.989 | 1.1 | 0.922 | 0.977 | 1.13 | 0.958
N fixed | 0.493 | 0.977 | 0.474 | 0.915 | 1.21 | 1.15 | 0.946 | 1.03 | 0.848
P fixed | 0.148 | 0.548 | 0.253 | 1.22 | 0.783 | 1.73 | 0.992 | 0.862 | 0.894
Q fixed | 1.32 | 1.04 | 0.399 | 0.938 | 0.888 | 0.847 | 0.979 | 0.818 | 0.826
R fixed | 1.76 | 1.31 | 0.669 | 1.15 | 1.73 | 2.22 | 1.48 | 1.23 | 1.12
V fixed | 1.26 | 1.14 | 0.661 | 0.863 | 1.11 | 0.697 | 0.732 | 0.969 | 0.991
W fixed | 0.81 | 0.603 | 1.68 | 1.11 | 0.623 | 0.727 | 0.944 | 0.999 | 0.986
Y fixed | 0.822 | 1.16 | 1.48 | 0.898 | 0.893 | 0.736 | 0.778 | 0.937 | 0.966
pThr fixed | 0.844 | 1.28 | 0.557 | 1.02 | 1.1 | 1.32 | 1.22 | 1.27 | 1.06
pTyr fixed | 0.422 | 0.937 | 0.518 | 0.722 | 0.785 | 0.648 | 0.892 | 0.859 | 0.733
